Reference: the Human Domainome abundance scans (Beltran et al. 2025)
± gives the uncertainty stated by the source.

B1: RUN and FYVE domain-containing protein 1, residues 639 to 698; numbered along this chain, Q96T51 (parent)
chain: WLKDDEATHCRQCEKEFSISRRKHHCRNCGHIFCNTCSSNELALPSYPKPVRVCDSCHTL

Variants of: B1
Experiment: abundance fitness (aPCA) (normalised: wild type 0, dead -1); higher = more abundant; growth selection in yeast, the domain comes from the species named
Settings: Homo sapiens

For WLKDDEAAHCRQCEKEFSISRRKHHCRNCGHIFCNTCSSNELALPSYPKPVRVCDSCHTL [T8A], which abundance fitness is on record?
The abundance fitness was -0.204 ± 0.056.

Which abundance fitness does the source give for WLKDDEATHCRQCEKEFSISRRKHYCRNCGHIFCNTCSSNELALPSYPKPVRVCDSCHTL [H25Y] here?
Its abundance fitness is 0.097 ± 0.068.

Which abundance fitness does the source give for WLKDDEATHCRQCEKEFSISRRKHHCRNCGHIFCNTCSSNELALPSYPKPVRVCDTCHTL [S56T] here?
Its abundance fitness is 0.284 ± 0.051.

For WLKDDEATHCRQCEKEFSISRRKHHCRNCGHIFCNKCSSNELALPSYPKPVRVCDSCHTL [T36K], which abundance fitness is on record?
Its abundance fitness is 0.254 ± 0.076.

For WLKDDEATTCRQCEKEFSISRRKHHCRNCGHIFCNTCSSNELALPSYPKPVRVCDSCHTL [H9T], which abundance fitness is on record?
The abundance fitness was -0.221 ± 0.045.

With WLKDDEATHCRQCEKEFSISRRKHHCRNCGHIFCNTCSSNELALPSYPVPVRVCDSCHTL [K49V] as the variant, how does the abundance fitness read?
Its abundance fitness is -0.14 ± 0.051.

With WLKDDEATHCRQCEKEFSISRRKHHCDNCGHIFCNTCSSNELALPSYPKPVRVCDSCHTL [R27D] as the variant, how does the abundance fitness read?
Its abundance fitness is 0.072 ± 0.082.

Which abundance fitness does the source give for WLKDDEATHCRQCEKEFSISRRKHHCRNCGHIFCNTCKSNELALPSYPKPVRVCDSCHTL [S38K] here?
Its abundance fitness is -0.589 ± 0.1.

For WLKDDEATHCRQCEKEFSISRRKHHCRNCGHINCNTCSSNELALPSYPKPVRVCDSCHTL [F33N], which abundance fitness is on record?
Its abundance fitness is -0.488 ± 0.12.

For WLKDDEATHCRQCEKEFSISRRKHHCRNCGHIMCNTCSSNELALPSYPKPVRVCDSCHTL [F33M], which abundance fitness is on record?
The abundance fitness was -0.378 ± 0.051.

For WLKDDEATHCRQCEKEFSISRRKHHCRNCGHIFCNTCSSNILALPSYPKPVRVCDSCHTL [E41I], which abundance fitness is on record?
Its abundance fitness is -0.335 ± 0.064.

Which abundance fitness does the source give for WLKDDEATHCRQCEKEFSISRRKSHCRNCGHIFCNTCSSNELALPSYPKPVRVCDSCHTL [H24S] here?
The abundance fitness was -0.284 ± 0.039.

For WLKDDEATHCRQCEKEFSISRRKHHCRNCGHIICNTCSSNELALPSYPKPVRVCDSCHTL [F33I], which abundance fitness is on record?
Its abundance fitness is -0.171 ± 0.06.

With WLKDDEATHCRQCEKEFSIPRRKHHCRNCGHIFCNTCSSNELALPSYPKPVRVCDSCHTL [S20P] as the variant, how does the abundance fitness read?
Its abundance fitness is -0.061 ± 0.048.

With WLKDDEATHCRQCEKEFSISRRKHHCRNCGHIFCNTCSSNELALPSYPKPVRVCDSCHHL [T59H] as the variant, how does the abundance fitness read?
Its abundance fitness is -0.148 ± 0.096.

Which abundance fitness does the source give for WLKDDETTHCRQCEKEFSISRRKHHCRNCGHIFCNTCSSNELALPSYPKPVRVCDSCHTL [A7T] here?
The abundance fitness was 0.014 ± 0.04.

Which abundance fitness does the source give for WLKDDEATHCRQCEKEFSISRRKHHCRNCGHIFCNTCSDNELALPSYPKPVRVCDSCHTL [S39D] here?
The abundance fitness was 0.128 ± 0.07.

For WLKDDEATHCRQCEKEFSISRRKHHCRNCGHIFCNTCSSNELALPSYPKPLRVCDSCHTL [V51L], which abundance fitness is on record?
The abundance fitness was -0.353 ± 0.046.

Which abundance fitness does the source give for WLKDDEATHCRQCEKEFSISRRKHHCRNCGHIFCNTCSSNELALPSYPKPVRVCDSTHTL [C57T] here?
The abundance fitness was -0.467 ± 0.07.

With WLKDDEATHCRQCEKEFSISRRKHHCRNCPHIFCNTCSSNELALPSYPKPVRVCDSCHTL [G30P] as the variant, how does the abundance fitness read?
Its abundance fitness is -0.754 ± 0.093.

With WLKDDEATHCRQCEKEFSISRRKHHCRNCGHIFCNTCSANELALPSYPKPVRVCDSCHTL [S39A] as the variant, how does the abundance fitness read?
The abundance fitness was 0.14 ± 0.041.

Which abundance fitness does the source give for WLKDDEATHCRQCNKEFSISRRKHHCRNCGHIFCNTCSSNELALPSYPKPVRVCDSCHTL [E14N] here?
Its abundance fitness is -0.459 ± 0.092.

Which abundance fitness does the source give for WLKDDEATHCRQCEKEFSISRRKHHCRNCGHIFCNTCSSNALALPSYPKPVRVCDSCHTL [E41A] here?
The abundance fitness was -0.182 ± 0.04.

For WLYDDEATHCRQCEKEFSISRRKHHCRNCGHIFCNTCSSNELALPSYPKPVRVCDSCHTL [K3Y], which abundance fitness is on record?
Its abundance fitness is -0.529 ± 0.081.

Which abundance fitness does the source give for WLKDDEATHCRQCEKEFSISRRKHHCRNCGHIFCNSCSSNELALPSYPKPVRVCDSCHTL [T36S] here?
The abundance fitness was 0.214 ± 0.038.

Which abundance fitness does the source give for WLKDDEATHCRQCEKEFSISRRKHHCRCCGHIFCNTCSSNELALPSYPKPVRVCDSCHTL [N28C] here?
Its abundance fitness is 0.058 ± 0.09.

Which abundance fitness does the source give for WLKDDEATHCRQCEKEFSISRRKHHCRNCGHIFCNTCSSNELCLPSYPKPVRVCDSCHTL [A43C] here?
The abundance fitness was -0.128 ± 0.04.

With WLKDDEATHCRQCEKEFSISRRKHHCRNCGHIFCNTCSSNELALPSYPKPVRVCTSCHTL [D55T] as the variant, how does the abundance fitness read?
Its abundance fitness is -0.602 ± 0.37.

For WLKDDEATHCRQCEKEFSISRRKHHCRNCGHIFCNTCSSNELALPQYPKPVRVCDSCHTL [S46Q], which abundance fitness is on record?
Its abundance fitness is 0.009 ± 0.2.

Which abundance fitness does the source give for WLKDDEATHCRQCEKEFSISRRKHHCRNCGHIFCNTCSSNEMALPSYPKPVRVCDSCHTL [L42M] here?
Its abundance fitness is -0.046 ± 0.057.

With WLKDDEATHCRQCEKEFSISRRKHCCRNCGHIFCNTCSSNELALPSYPKPVRVCDSCHTL [H25C] as the variant, how does the abundance fitness read?
The abundance fitness was -0.169 ± 0.077.

With FLKDDEATHCRQCEKEFSISRRKHHCRNCGHIFCNTCSSNELALPSYPKPVRVCDSCHTL [W1F] as the variant, how does the abundance fitness read?
The abundance fitness was -0.106 ± 0.14.

With WLKDDEATHCRQCEKEFSISRRKHHCRNCGHIFCNTCSSNELAHPSYPKPVRVCDSCHTL [L44H] as the variant, how does the abundance fitness read?
Its abundance fitness is -0.295 ± 0.067.

For WLKDDEATHCRQCEKEFSISRRKHHCRNCGHIFCNTCSSNELALNSYPKPVRVCDSCHTL [P45N], which abundance fitness is on record?
The abundance fitness was 0.017 ± 0.053.

Which abundance fitness does the source give for WLKDDEAKHCRQCEKEFSISRRKHHCRNCGHIFCNTCSSNELALPSYPKPVRVCDSCHTL [T8K] here?
The abundance fitness was -0.026 ± 0.06.

For WLKDDEATPCRQCEKEFSISRRKHHCRNCGHIFCNTCSSNELALPSYPKPVRVCDSCHTL [H9P], which abundance fitness is on record?
Its abundance fitness is -0.822 ± 0.079.

For WLKDDEATHCRQCEKEFSISRRKHHCRNCGHIFCTTCSSNELALPSYPKPVRVCDSCHTL [N35T], which abundance fitness is on record?
The abundance fitness was 0.22 ± 0.037.

With WLKDDEATHCRQTEKEFSISRRKHHCRNCGHIFCNTCSSNELALPSYPKPVRVCDSCHTL [C13T] as the variant, how does the abundance fitness read?
Its abundance fitness is -0.83 ± 0.079.

For WLKDDEATHCWQCEKEFSISRRKHHCRNCGHIFCNTCSSNELALPSYPKPVRVCDSCHTL [R11W], which abundance fitness is on record?
The abundance fitness was 0.224 ± 0.056.

Which abundance fitness does the source give for WLKDDEATHCRQCEKEFSNSRRKHHCRNCGHIFCNTCSSNELALPSYPKPVRVCDSCHTL [I19N] here?
The abundance fitness was -0.001 ± 0.052.

Which abundance fitness does the source give for WLKDDEATHCRQCEKEFSISRRKHHCRNCGGIFCNTCSSNELALPSYPKPVRVCDSCHTL [H31G] here?
The abundance fitness was 0.08 ± 0.037.

For WLKDDEATHCRQCEKEFSISRRKHHCRNCGHIFCNRCSSNELALPSYPKPVRVCDSCHTL [T36R], which abundance fitness is on record?
The abundance fitness was 0.351 ± 0.033.

For WLKDDEATHCRQCEKEFSISRRKHHCRNCGHIFCNTCSSNESALPSYPKPVRVCDSCHTL [L42S], which abundance fitness is on record?
The abundance fitness was 0.096 ± 0.042.

For WLKDDEAEHCRQCEKEFSISRRKHHCRNCGHIFCNTCSSNELALPSYPKPVRVCDSCHTL [T8E], which abundance fitness is on record?
The abundance fitness was -0.085 ± 0.057.

With WLKDDEATHCRQCEKEFSISRRKHHCRNCGHMFCNTCSSNELALPSYPKPVRVCDSCHTL [I32M] as the variant, how does the abundance fitness read?
Its abundance fitness is 0.161 ± 0.045.
